Ends that are not written are not given here. TAMRA = 5 (and 6)-carboxytetramethylrhodamine
How the values were obtained:
[1] = molecular target: T1, full length PSD-95 (FL-PSD-95, 1-724) (human, UniProt P78352 1-724); experiment: fluorescence polarisation; saturation binding: increasing protein, fixed fluorescently labeled peptide; 50 mM Tris (pH 8.0), 300 mM NaCl, 10 mM EDTA, 1 mM TCEP; 20 min on ice; settings: both partners purified
T1 construct: construct 32M3C-PSD-95 FL 1-724 from Zeng et al. (2016a); A PreScission 3C site follows the tags; For the arrays 0.1 uM of 1 uM was labelled with Alexa 633 (maleimide); also called PSD protein 95; 32M3C-PSD-95 FL; source: E. coli BL21-DE3-pLysS, purified (HisTrap, SEC)
T1 sequence (P78352 whole entry): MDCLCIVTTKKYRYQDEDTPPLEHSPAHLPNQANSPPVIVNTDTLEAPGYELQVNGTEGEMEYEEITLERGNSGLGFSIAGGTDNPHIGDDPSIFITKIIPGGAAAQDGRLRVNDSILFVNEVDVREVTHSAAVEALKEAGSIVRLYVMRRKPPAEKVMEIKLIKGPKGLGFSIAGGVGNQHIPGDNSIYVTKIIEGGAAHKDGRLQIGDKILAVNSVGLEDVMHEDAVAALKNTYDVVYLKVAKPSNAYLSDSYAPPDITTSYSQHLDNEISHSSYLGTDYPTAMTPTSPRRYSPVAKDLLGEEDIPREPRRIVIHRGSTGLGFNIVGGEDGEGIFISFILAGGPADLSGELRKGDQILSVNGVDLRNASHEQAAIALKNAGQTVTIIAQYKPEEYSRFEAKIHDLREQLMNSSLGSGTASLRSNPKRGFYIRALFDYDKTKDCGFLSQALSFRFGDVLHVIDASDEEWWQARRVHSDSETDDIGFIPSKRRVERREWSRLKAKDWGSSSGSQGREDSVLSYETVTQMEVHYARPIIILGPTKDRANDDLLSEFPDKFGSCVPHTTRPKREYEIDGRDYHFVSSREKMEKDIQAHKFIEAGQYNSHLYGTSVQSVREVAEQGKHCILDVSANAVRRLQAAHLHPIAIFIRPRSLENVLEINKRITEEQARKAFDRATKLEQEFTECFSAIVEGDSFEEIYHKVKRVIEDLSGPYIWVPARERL

[2] = molecular target: T2, GST-Arc 195-364 (rat) (rat, UniProt Q63053 195-364); experiment: as above; settings: both partners purified
T2 construct: rat Arc residues 195-364, Uniprot Q63053; GST is followed by a thrombin and a factor Xa site; the protein was eluted with glutathione and no cleavage is described; also called pGEX4T1-Arc 195-364; source: E. coli BL21-DE3-pLysS, purified (Glutathione Sepharose, SEC)
T2 sequence (looked up): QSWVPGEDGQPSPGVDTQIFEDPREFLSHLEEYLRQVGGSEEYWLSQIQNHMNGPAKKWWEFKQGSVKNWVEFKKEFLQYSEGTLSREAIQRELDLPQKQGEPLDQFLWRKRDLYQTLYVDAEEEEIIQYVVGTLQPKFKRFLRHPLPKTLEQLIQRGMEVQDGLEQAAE

Kd [1]: 14.9 ± 3 µM | Kd [2]: 8.37 ± 1.25 µM
B1: TAMRA-G-A222ITRIPSYRYRYQRR236 (fluorescently labeled Stg A222-R236 peptide) (peptide)
peptide: {TAMRA}-GAITRIPSYRYRYQRR
notes: added glycine between TAMRA and A222; also called TMR labeled Stg_(A222-R236); source: synthetic peptide (in-house)

— article PMC8844826 (iScience, 2022)
